Data from US12098176B2, “Keratin BD-4, preparation method, and pharmaceutical composition and use thereof” (Institute of Materia Medica, Chinese Academy of Medical …, priority 2019, dated 2024).

Key:
[1] = system: PLO-induced epilepsy in mice; experiment: Pilocarpine (PLO) induced convulsive epilepsy in mice; type: in vivo, mouse; conditions: for Grade IV seizure rate / mortality rate: 10 mice; for Grade IV seizure rate / mortality rate / Number of deaths / Number of Grade IV cases: PLO 225 mg/kg i.p.; for Number of deaths / Number of Grade IV cases: of 10 mice; for Number of Grade IV cases: 30 min observation; for Level II onset incubation period / Level III onset incubation period / Level IV onset incubation period: mean ± SEM; for Level IV onset incubation period: no grade IV attack recorded as 1800 s
Method: Experimental example 3 The pharmacodynamic test of protein BD-4 (Example 4 protein) on convulsive epilepsy in mice caused by the convulsion agent Pilocarpine (PLO)
Model group: • Diazepam (Diazepam) 2 mg/kg group; • Protein BD-4, 50 mg/kg group, 200 mg/kg group. Method: Model Preparation and Administration:
The drug was administered once in the afternoon the day before modeling, PLO-225 mg/kg (modeling agent) was injected intraperitoneally 1 hour after the test drug was given to the stomach on the day of modeling. And positive drug can be administered once 20 minutes before modeling. Observe for 30 minutes after PLO injection.
Observation indicators: 1) Seizure situation: the time of seizures from grade II to grade IV; 2) the time to death.
Attack level: Refer to Racine grading standard: Level 0: No response; Grade I: manifested as twitching of facial muscles or the corners of the mouth; Level II: can nod; Level III: Twitching of one limb; Grade IV: rigidity or body twitching; Grade V: generalized epilepsy (generalized tonic seizures).
Count the number of grade IV seizures and deaths in each group of mice in the experiment; Level II, III and IV incubation period. […] Chi-square test was used for statistics of the number of cases. The mean value and standard error of the incubation period were calculated, and TTEST was used to compare the model group with other groups. P<0.05 was considered as a significant difference.

[2] = system: mice cough induced by ammonia water; experiment: Antitussive test, cough induced by ammonia water in mice; type: in vivo, mouse; conditions: for Incubation period: cough latency; for Incubation period / Number of coughs: X ± SEM; for Number of coughs: within 2 minutes
Method: Experimental example 6 The effect of protein BD-4 (Example 4 protein) on the antitussive effect of the cough induced by ammonia water in mice. Animals: male ICR mice; Drugs and reagents: dextromethorphan hydrobromide, ammonia, 0.2% CMC-Na, protein BD-4; Apparatus: Compressed nebulizer (403T type), balance (XS105DU type). Experiment Grouping: • Solvent control group; • Dextromethorphan 15 mg/kg group; • Protein BD-4, 20 mg/kg group, 50 mg/kg group. Method: Model Preparation and Administration:
Dextromethorphan and different doses of protein BD-4 (administration volume 10 ml/kg) were given orally in groups, and the solvent control group was given the same volume of distilled water. One hour later, it was put into a sealed box and atomized 10% ammonia water for 10 seconds, and then observed and recorded the incubation period of cough in mice and the number of coughs in 2 minutes.
Record the time point of oral administration, the time point of atomization experiment, the incubation period of mice cough and the number of coughs within 2 minutes, respectively. The incubation period of cough refers to the number of seconds from the start of the atomization of ammonia to the occurrence of cough. The performance of coughing in mice is based on contraction of their abdominal muscles (breast contraction) and opening their mouths at the same time. Calculate the mean and standard error of each group of data, use TTEST to compare the model group with other groups, and P<0.05 is considered as a significant difference.

[3] = system: lipopolysaccharide (LPS) induced fever in rats; experiment: Lipopolysaccharide (LPS) induced fever in SD rats; type: in vivo, rat; conditions: for Body temperature 2 hours after modeling: 2 h after LPS 20 μg/kg i.p.; for Body temperature 4 hours after modeling: 4 h after LPS 20 μg/kg i.p.; for Body temperature 6 hours after modeling: 6 h after LPS 20 μg/kg i.p.; for Body temperature 8 hours after modeling: 8 h after LPS 20 μg/kg i.p.
Method: Experimental example 2 The pharmacodynamic test of protein BD-4 (Example 4 protein) on lipopolysaccharide (LPS) induced fever in SD rats.
Experiment Grouping: • Model group: lipopolysaccharide fever model; • Positive control group: Aspirin 300 mg/kg group, • Protein BD-4, 10 mg/kg group, 50 mg/kg group. Method: the method of intraperitoneal injection of Lipopolysaccharide to create fever model in rats.
Preparation of experimental animals: After the experimental animals adapt to the experimental environment (temperature 22° C.±2° C., relative humidity 50%±2%) for 1 day. Pre-adaptation to measure rectal temperature at 8:00 and 15:00, Rats were fasted and water was taken freely 12 h before experiment. before the experiment, let the animal to empty its feces before measuring the rectal temperature. Apply petroleum jelly to the electronic thermometer probe before each temperature measurement. Insert the rat rectum 2 cm (can be marked at 2 cm to ensure that the depth of each insertion is consistent), and record the body temperature after the reading is stable.
Intraperitoneal injection of lipopolysaccharide to replicate rat fever model: The body temperature of the rats was measured before modeling. Qualified rats with a body temperature of 36.2-37.3° C. were selected and randomly divided into groups with 8 rats in each group. After oral administration of aspirin and different doses of protein BD-4, lipopolysaccharide (20 μg/kg, 2 ml/kg) was injected intraperitoneally immediately, and the normal control group was injected intraperitoneally with an equal volume of normal saline. the rats' body temperature was monitored after 2 hours for a total of 8 hours.
According to the body temperature measured at each time point on the day of the experiment, calculate the mean, standard deviation and standard error of the body temperature of each group of rats. The data of each group was compared with TTEST, and P<0.05 was considered as a significant difference.

B1: BD-4: recombinant keratin, amino acid sequence SEQ ID NO: 1, expressed in E. coli; the protein of Example 4 was tested (protein, listed as Bos taurus)
chain: MSYSCCLPNLSFRSSCSSRPCVPSSCCGTTLPGACNIPANVGSCNWFCEGSFNGSEKETMQFLNDRLASYLEKVRQLERDNAELESRILERSQQQEPLVCPNYQSYFRTIEELQQKILCSKSENARLVVQIDNAKLASDDFRTKYETEVSLRQLVEADLNGLRRILDELTLCKSDLEARVESLKEELICLKQNHEQEVNTLRSQLGDRLNVEVDAAPTVDLNRVLNETRAQYEALVETNRRDVEEWYIRQTEELNKQVVSSSEQLQSYQAEIIELRRTVNALEVELQAQHNLRDSLENTLTETEARYSCQLAQVQGLIGNVESQLAEIRSDLERQNQEYQVLLDVRARLECEINTYRGLLDSEDCKLPCNPCATTNACERPCISNPCVSRARCGPCNTFVH
[1]; 50 mg/kg
  Epilepsy grade II incubation period, comparison with model group: statistically different from the model group
  Epilepsy grade III incubation period, comparison with model group: statistically different from the model group
  Level II onset incubation period: 95 ± 3 s
  Level III onset incubation period: 162 ± 5 s
  Level IV onset incubation period: 974 ± 192 s
[1]; 50 mg/kg gavage
  Grade IV seizure rate: 70%
  mortality rate: 0
  Number of deaths: 0
  Number of Grade IV cases: 7
[1]; 200 mg/kg
  Epilepsy grade III incubation period, comparison with model group: statistically different from the model group
  Level II onset incubation period: 95 ± 6 s
  Level III onset incubation period: 184 ± 17 s
  Level IV onset incubation period: 765 ± 135 s
[1]; 200 mg/kg gavage
  Grade IV seizure rate: 90%
  mortality rate: 10%
  Number of deaths: 1
  Number of Grade IV cases: 9
[2]; 20 mg/kg oral
  Incubation period: 34.0 ± 2.4 s
  Number of coughs: 55.9 ± 3.5
[2]; 20 mg/kg, P<0.05
  Cough incubation period vs solvent control group: significant improvement
  Number of coughs vs solvent control group: significant improvement
[2]; 50 mg/kg oral
  Incubation period: 33.2 ± 3.9 s
  Number of coughs: 62.1 ± 3.7
[2]; 50 mg/kg, P<0.05
  Number of coughs vs solvent control group: significant improvement
[3]; 10 mg/kg and 50 mg/kg, after modeling
  Effect on body temperature of model rats: tendency to lower the body temperature of model rats after modeling, but it is not statistically significant
[3]; 10 mg/kg oral
  Body temperature 2 hours after modeling: 37.7 ± 0.1 °C
  Body temperature 4 hours after modeling: 37.8 ± 0.l
  Body temperature 6 hours after modeling: 37.8 ± 0.2 °C
  Body temperature 8 hours after modeling: 37.5 ± 0.2 °C
[3]; 50 mg/kg oral
  Body temperature 2 hours after modeling: 37.6 ± 0.2 °C
  Body temperature 4 hours after modeling: 37.7 ± 0.2 °C
  Body temperature 6 hours after modeling: 37.6 ± 0.2 °C
  Body temperature 8 hours after modeling: 37.5 ± 0.1 °C
